The target of assay [1] is T1, human CD3 expressed on cells (human, UniProt P07766 23-207; P04234 22-171; P09693 23-182).
T1 construct: whole, on cells; CD3 complex on Jurkat cells and on human primary T cells
Put plainly: flow cytometry, 25 nM. The gist of the method: (§1)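 Binding reported as fold over isotype: median fluorescence intensity divided by isotype control, with ≥10 scored positive. Cells were exposed to 25 nM antibody in PBS/2% FBS, 30 min, 4 °C, before flow cytometric read-out.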
Background: In flow cytometry, cells or beads pass a laser one at a time.

Assay [2] has as its target T2, cynomolgus monkey CD3 expressed on primary T cells (cynomolgus monkey, UniProt Q95LI5 22-198; Q95LI8 22-171; Q95LI7 23-181).
T2 construct: whole, on cells; CD3 complex on purified cynomolgus monkey T cells; also called cyno CD3
Put plainly: flow cytometry, 25 nM, cyno primary T cells. In outline: as §1

Where a chain is given by its changes, count along the chain named.

T2 sequence (Q95LI5 22-198, chain 1 of 3): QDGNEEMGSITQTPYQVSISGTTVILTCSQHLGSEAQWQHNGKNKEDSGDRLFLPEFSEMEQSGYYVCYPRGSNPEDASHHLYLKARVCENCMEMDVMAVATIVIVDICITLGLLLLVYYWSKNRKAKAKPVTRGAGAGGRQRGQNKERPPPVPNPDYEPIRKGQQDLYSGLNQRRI
T2 sequence (Q95LI8 22-171, chain 2 of 3): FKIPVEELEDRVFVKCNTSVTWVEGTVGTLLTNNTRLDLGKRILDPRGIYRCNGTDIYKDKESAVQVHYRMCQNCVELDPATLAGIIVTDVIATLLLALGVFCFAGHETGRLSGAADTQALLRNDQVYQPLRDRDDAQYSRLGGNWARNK
T2 sequence (Q95LI7 23-181, chain 3 of 3): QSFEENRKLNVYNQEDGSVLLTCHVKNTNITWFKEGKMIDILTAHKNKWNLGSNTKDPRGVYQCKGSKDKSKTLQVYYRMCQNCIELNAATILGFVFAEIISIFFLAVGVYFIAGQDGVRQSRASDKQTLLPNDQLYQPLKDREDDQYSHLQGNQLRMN
T1 sequence (P07766 23-207, chain 1 of 3): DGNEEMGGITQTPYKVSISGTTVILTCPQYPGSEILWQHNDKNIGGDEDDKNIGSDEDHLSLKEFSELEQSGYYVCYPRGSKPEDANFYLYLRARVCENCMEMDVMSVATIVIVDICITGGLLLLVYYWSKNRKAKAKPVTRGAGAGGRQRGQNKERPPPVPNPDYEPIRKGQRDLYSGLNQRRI
T1 sequence (P04234 22-171, chain 2 of 3): as the sequence (Q95LI8 22-171, chain 2 of 3) above, with V5I, K15N, V20I, T32S, N33D, N34I, A64T, N74S, L83V, R141H counted along it
T1 sequence (P09693 23-182, chain 3 of 3): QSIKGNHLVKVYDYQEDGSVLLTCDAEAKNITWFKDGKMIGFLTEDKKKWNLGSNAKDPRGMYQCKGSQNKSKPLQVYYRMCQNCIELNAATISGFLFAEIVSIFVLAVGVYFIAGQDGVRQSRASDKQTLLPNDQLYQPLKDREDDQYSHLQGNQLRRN

B1: mAb 113 (antibody, V domains shown)
VH: EVQLVESGGGLVKTGGSLRLSCVASGFSFKKAWMNWVRQAPGKGLEWVGRIKRNTDGGTTDYAAPVKGRFTLSRDDSKNTLYLQMNSLKTEDTAVYYCTTLDSSSWYVGYYYMDVWGKGTTVTVSS
VL: DIQMTQSPSSVSASVGDRVTITCRASQDINNWLAWYQQKPGKAPKILIYTASSLQSGVPSRFSGSGSGTDFTLTISSLQPEDFATYYCQQAHSLPITFGQGTRLEIK
As to B1, in assay [1], the “Human primary T Cell Binding (FOI)” value is 173 FOI and the “Jurkat Cell Binding (FOI)” value is 157 FOI. Besides, the binding result in assay [2] is “no binding (tested: FOI >=10 = positive)”.

B2: mAb 125 (antibody, V domains shown)
VH: B1 VH with T60A, N79K, W106R
VL: B1 VL with T20I, A43V, I46L, S76G, S77T, E105D
As for B2, in assay [1], the “Human primary T Cell Binding (FOI)” value was 180 FOI and the “Jurkat Cell Binding (FOI)” value came to 185 FOI. In addition, the binding result in assay [2] is “no binding (tested: FOI >=10 = positive)”.

B3: mAb 123 (antibody, V domains shown)
VH: DVQLVESGGGTVKTGGSLRLSCVASGFSFKKAWMNWVRQAPGKGLEWVGRIKKNSDDGTADYAAPVKGRFTISRDDSKRTLFLQMNSLQTEDTAVYYCTTLDSSSWFVGYYYMDVWGKGTTVTVSS
VL: B1 VL with T20I, I46L, G68V, T69S, S76D
For B3, in assay [1], the “Human primary T Cell Binding (FOI)” value is 171 FOI and the “Jurkat Cell Binding (FOI)” value came out at 159 FOI. The binding result in assay [2] is recorded as “no binding (tested: FOI >=10 = positive)”.

B4: mAb 116 (antibody, V domains shown)
VH: B1 VH with T55S
VL: B1 VL with S9F
In the case of B4, in assay [1], the “Human primary T Cell Binding (FOI)” value worked out at 174 FOI and the “Jurkat Cell Binding (FOI)” value came to 159 FOI. Moreover, the binding result in assay [2] is listed as “no binding (tested: FOI >=10 = positive)”.

B5: mAb 120 (antibody, V domains shown)
VH: B1 VH with T60A, N79K, Y82F, W106Y
VL: B1 VL with I46L, S76G
As to B5, in assay [1], the “Human primary T Cell Binding (FOI)” value was determined as 167 FOI and the “Jurkat Cell Binding (FOI)” value amounted to 168 FOI. Also, in assay [2], the binding result is reported as “no binding (tested: FOI >=10 = positive)”.

B6: mAb 114 (antibody, V domains shown)
VH: B1 VH with T59P, T60A, N79K
VL: B1 VL with T20I, Q37L, K39R, I46L, T50A, S76G, K107Q
Regarding B6, in assay [1], the “Human primary T Cell Binding (FOI)” value was found to be 179 FOI and the “Jurkat Cell Binding (FOI)” value was determined as 167 FOI. Further, in assay [2], the binding result was “no binding (tested: FOI >=10 = positive)”.

B7: mAb 122 (antibody, V domains shown)
VH: B1 VH with T60A, N79K, W106R
VL: B1 VL with T20I, A43V, I46L, S76G
As for B7, in assay [1], the “Human primary T Cell Binding (FOI)” value amounted to 174 FOI and the “Jurkat Cell Binding (FOI)” value was 199 FOI. The binding result in assay [2] is reported as “no binding (tested: FOI >=10 = positive)”.

B8: mAb 117 (antibody, V domains shown)
VH: B1 VH with W106L
VL: B1 VL with I46L
Turning to B8, in assay [1], the “Human primary T Cell Binding (FOI)” value came out at 170 FOI and the “Jurkat Cell Binding (FOI)” value was 155 FOI. Also, in assay [2], the binding result is “no binding (tested: FOI >=10 = positive)”.

B9: mAb 115 (antibody, V domains shown)
VH: B1 VH with L18H, T55S, T71I
VL: B1 VL with S53N, Y87F, S93G
Turning to B9, in assay [1], the “Human primary T Cell Binding (FOI)” value turned out to be 174 FOI and the “Jurkat Cell Binding (FOI)” value amounted to 157 FOI. For the same molecule, in assay [2], the binding result was “no binding (tested: FOI >=10 = positive)”.

B10: mAb 131 (antibody, V domains shown)
VH: B1 VH with L20I, T60I, T71S, Y82F, Y97F, W106Y
VL: B1 VL with Q3H, I46L, Y87F, E105G
Consider B10, for which, in assay [1], the “Human primary T Cell Binding (FOI)” value amounted to 171 FOI and the “Jurkat Cell Binding (FOI)” value worked out at 155 FOI. In assay [2], the binding result was “no binding (tested: FOI >=10 = positive)”.
